doi:10.1101/2023.10.26.564194 (bioRxiv, 2023)

Key:
[1] = molecular target: T1, recombinant His-Tag NRF2 truncation mutant Δ205-400 amino acids (Neh6/7 domains deleted) (UniProt Q16236 1-605, Δ205-400); assay: pull-down
T1 sequence: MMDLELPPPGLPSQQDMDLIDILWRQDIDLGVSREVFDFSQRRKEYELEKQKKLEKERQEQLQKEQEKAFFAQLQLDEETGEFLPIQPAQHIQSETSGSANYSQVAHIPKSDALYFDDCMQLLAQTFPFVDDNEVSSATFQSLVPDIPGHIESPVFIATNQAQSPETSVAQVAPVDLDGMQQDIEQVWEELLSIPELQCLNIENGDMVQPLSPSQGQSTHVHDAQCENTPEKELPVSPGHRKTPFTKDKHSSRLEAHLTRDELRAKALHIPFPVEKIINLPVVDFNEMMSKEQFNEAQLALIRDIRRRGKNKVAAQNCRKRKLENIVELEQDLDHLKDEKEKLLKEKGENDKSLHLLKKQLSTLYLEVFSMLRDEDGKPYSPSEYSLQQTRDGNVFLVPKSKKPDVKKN

[2] = molecular target: T2, recombinant His-tagged NRF2, full length (UniProt Q16236 1-605); assay: MST
T2 sequence: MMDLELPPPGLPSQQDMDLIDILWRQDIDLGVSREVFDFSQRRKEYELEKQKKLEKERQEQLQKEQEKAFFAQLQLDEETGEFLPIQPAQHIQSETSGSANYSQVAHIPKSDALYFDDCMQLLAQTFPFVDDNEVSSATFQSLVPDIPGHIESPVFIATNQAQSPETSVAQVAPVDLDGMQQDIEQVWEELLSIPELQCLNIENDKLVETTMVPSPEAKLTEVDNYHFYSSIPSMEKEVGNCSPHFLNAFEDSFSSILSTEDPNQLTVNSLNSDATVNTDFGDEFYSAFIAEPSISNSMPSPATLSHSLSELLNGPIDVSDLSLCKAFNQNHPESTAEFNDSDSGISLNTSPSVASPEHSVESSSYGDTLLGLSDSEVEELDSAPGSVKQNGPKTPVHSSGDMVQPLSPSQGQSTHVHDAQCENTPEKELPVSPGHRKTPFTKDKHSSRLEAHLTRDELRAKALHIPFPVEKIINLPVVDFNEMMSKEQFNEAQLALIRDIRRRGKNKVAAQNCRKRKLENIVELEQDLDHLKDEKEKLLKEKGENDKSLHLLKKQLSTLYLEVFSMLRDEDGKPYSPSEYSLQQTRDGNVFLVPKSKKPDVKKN

B1: recombinant αB-crystallin (natural protein)
chain: MDIAIHHPWIRRPFFPFHSPSRLFDQFFGEHLLESDLFPTSTSLSPFYLRPPSFLRAPSWFDTGLSEMRLEKDRFSVNLDVKHFSPEELKVKVLGDVIEVHGKHEERQDEHGFISREFHRKYRIPADVDPLTITSSLSSDGVLTVNGPRKQVSGPERTIPITREEKPAVTAAPKK
B1 was tested, and the binding result [1] was “binds” and the Kd [2] was 859 ± 70.1 nM.
